B1: CPP32 (protein)
chain: MENTENSVDSKSIKNLEPKIIHGSESMDSGISLDNSYKMDYPEMGLCIIINNKNFHKSTGMTSRSGTDVDAANLRETFRNLKYEVRNKNDLTREEIVELMRDVSKEDHSKRSSFVCVLLSHGEEGIIFGTNGPVDLKKITNFFRGDRCRSLTGKPKLFIIQACRGTELDCGIETDSGVDDDMACHKIPVEADFLYAYSTAPGYYSWRNSKDGSWFIQSLCAMLKQYADKLEFMHILTRVNRKVATEFESFSFDATFHAKKQIPCIVSMLTKELYFYH
B2: Mch2α (protein)
chain: MSSASGLRRGHPAGGEENMTETDAFYKREMFDPAEKYKMDHRRRGIALIFNHERFFWHLTLPERRRTCADRDNLTRRFSDLGFEVKCFNDLKAEELLLKIHEVSTVSHADADCFVCVFLSHGEGNHIYAYDAKIEIQTLTGLFKGDKCHSLVGKPKIFIIQACRGNQHDVPVIPLDVVDNQTEKLDTNITEVDAASVYTLPAGADFLMCYSVAEGYYSHRETVNGSWYIQDLCEMLGKYGSSLEFTELLTLVNRKVSQRRVDFCKDPSAIGKKQVPCFASMLTKKLHFFPKSN
B3: Mch2β (protein)
chain: MSSASGLRRGHPAVSTVSHADADCFVCVFLSHGEGNHIYAYDAKIEIQTLTGLFKGDKCHSLVGKPKIFIIQACRGNQHDVPVIPLDVVDNQTEKLDTNITEVDAASVYTLPAGADFLMCYSVAEGYYSHRETVNGSWYIQDLCEMLGKYGSSLEFTELLTLVNRKVSQRRVDFCKDPSAIGKKQVPCFASMLTKKLHFFPKSN
B4: ICEγ (protein)
chain: MADKVLKEKRKLFIRSMGEAPQAVQDNPAMPTSSGSEGNVKLCSLEEAQRIWKQKSAEIYPIMDKSSRTRLALIICNEEFDSIPRRTGAEVDITGMTMLLQNLGYSVDVKKNLTASDMTTELEAFAHRPEHKTSDSTFLVFMSHGIREGICGKKHSEQVPDILQLNAIFNMLNTKNCPSLKDKPKVIIIQACRGDSPGVVWFKDSVGVSGNLSLPTTEEFEDDAIKKAHIEKDFIAFCSSTPDNVSWRHPTMGSVFIGRLIEHMQEYACSCDVEEIFRKVRFSFEQPDGRAQMPTTERVTLTRCFYLFPGH

These proteins were tested against human PARP, P09874.
Sequence of human PARP, P09874 (P09874 whole entry, looked up): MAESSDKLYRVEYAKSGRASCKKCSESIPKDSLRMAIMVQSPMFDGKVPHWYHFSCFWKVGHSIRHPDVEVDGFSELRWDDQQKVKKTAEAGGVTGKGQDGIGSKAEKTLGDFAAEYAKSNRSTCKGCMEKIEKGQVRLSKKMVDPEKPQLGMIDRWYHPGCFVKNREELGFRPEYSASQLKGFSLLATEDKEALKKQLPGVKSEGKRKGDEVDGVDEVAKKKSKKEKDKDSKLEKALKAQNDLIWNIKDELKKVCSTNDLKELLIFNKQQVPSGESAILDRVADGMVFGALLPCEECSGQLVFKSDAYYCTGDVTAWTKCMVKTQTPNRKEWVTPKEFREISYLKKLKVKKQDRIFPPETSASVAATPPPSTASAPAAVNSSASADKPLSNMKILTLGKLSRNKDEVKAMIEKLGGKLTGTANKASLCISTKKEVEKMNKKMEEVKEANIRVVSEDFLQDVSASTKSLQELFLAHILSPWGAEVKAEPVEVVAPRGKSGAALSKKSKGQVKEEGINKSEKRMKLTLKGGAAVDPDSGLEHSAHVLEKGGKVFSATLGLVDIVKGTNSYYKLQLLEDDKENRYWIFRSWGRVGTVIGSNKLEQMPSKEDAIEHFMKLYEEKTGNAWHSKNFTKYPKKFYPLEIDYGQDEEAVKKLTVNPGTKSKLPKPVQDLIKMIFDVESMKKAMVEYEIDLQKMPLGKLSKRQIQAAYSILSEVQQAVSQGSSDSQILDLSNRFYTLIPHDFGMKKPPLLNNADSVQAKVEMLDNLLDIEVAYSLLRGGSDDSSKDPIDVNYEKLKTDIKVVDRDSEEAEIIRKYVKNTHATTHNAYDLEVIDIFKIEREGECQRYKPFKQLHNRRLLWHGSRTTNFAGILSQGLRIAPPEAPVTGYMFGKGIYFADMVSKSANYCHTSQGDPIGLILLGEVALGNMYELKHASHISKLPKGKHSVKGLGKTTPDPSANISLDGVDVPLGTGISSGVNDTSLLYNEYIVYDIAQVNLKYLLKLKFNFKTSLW
B1 was tested, and the “cleavage of PARP in vitro, Western blot” value was “CPP32 cleaved PARP to generate a major band of ˜90 kDa and a minor band of 57 kDa”. In the case of B2, the “cleavage of PARP in vitro, Western blot” value is reported as “Mch2α also cleaved PAR: to generate a major product of ˜83 kDa and a minor product of ˜57 kDa similar to that obtained with CPP32”. In the case of B3, the “cleavage of PARP in vitro, Western blot” value is reported as “PARP was not cleaved by Mch2β or ICEγ”. With B4 the “cleavage of PARP in vitro, Western blot” value was “PARP was not cleaved by Mch2β or ICEγ”.

From patent US20030022353
